Measurements from paper PMC9763423.

Molecular target: JOSD1 (UniProt Q15040)
Assay: co-immunoprecipitation, immunoblot
Settings: reference: Flag-MCL1 WT; sites S159

## MCL-1 (from UniProt Q07820) Flag-MCL1 S159A
  binding against the reference: stronger
